Test results: paper PMC7108862, “GPC1 specific CAR-T cells eradicate established solid tumor without adverse effects and synergize with anti-PD-1 Ab” (eLife, 2020)

Legend:
[1] = biological target: T1, recombinant mGPC1 protein (Mus musculus, UniProt Q9QZF2); test: SPR; scFv-Fc fusion protein (1 μg/ml) captured by polyclonal rabbit anti-mouse IgG immobilised on CM5 chip; recombinant hGPC1 (6.25–400 nM) or mGPC1 (25–400 nM) injected; 25°C, HBS-EP+ buffer, Biacore T200; settings: both partners purified
T1 construct: glypican-1 (GPC1), mouse, recombinant protein from Biolegend; also called Mouse GPC1; mouse glypican-1; source: bought: Biolegend
T1 sequence (Q9QZF2 24-529): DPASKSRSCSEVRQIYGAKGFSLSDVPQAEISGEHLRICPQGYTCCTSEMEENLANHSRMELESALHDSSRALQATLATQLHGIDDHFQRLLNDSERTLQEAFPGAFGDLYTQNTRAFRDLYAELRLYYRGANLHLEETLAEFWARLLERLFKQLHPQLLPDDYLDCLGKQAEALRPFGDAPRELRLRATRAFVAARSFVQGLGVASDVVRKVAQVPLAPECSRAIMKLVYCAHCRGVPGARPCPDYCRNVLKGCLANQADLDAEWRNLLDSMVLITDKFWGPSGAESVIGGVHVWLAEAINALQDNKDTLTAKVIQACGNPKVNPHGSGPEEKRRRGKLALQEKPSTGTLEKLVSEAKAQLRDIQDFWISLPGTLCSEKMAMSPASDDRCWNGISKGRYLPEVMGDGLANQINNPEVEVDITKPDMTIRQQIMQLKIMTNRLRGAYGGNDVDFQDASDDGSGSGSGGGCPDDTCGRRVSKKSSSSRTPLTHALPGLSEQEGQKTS

[2] = biological target: T2, recombinant hGPC1 protein (Homo sapiens, UniProt P35052); test: as above; settings: both partners purified
T2 construct: glypican-1 (GPC1), human, recombinant protein from Biolegend; also called Human GPC1; human glypican-1; source: bought: Biolegend
T2 sequence (P35052 24-530): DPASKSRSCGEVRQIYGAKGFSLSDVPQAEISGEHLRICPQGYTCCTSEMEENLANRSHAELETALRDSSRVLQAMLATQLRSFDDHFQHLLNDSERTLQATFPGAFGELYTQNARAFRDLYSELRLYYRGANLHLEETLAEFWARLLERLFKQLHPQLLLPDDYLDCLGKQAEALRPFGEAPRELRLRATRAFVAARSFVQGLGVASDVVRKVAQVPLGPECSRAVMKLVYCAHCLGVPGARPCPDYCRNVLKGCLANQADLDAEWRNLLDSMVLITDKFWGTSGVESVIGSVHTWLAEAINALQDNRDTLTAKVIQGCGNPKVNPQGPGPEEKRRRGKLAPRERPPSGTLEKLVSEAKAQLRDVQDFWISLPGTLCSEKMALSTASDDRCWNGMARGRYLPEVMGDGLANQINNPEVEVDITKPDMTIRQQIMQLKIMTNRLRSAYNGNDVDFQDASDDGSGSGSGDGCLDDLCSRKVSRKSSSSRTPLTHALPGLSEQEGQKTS

B1: LH form of anti GPC1 scFv-mIgG2a Fc fusion protein (scFv, V domains shown)
VH: AVTLDESGGGLQTPGRALSLVCKASGFTFSRYAMYWVRQAPGKGLEFVAGIGNTGRYTGYGSAVKGRATISRDSGQSTVRLQLNNLRAEDTGNYYCAKSVSPYCCDAADIDAWGHGTEVIVSS
VL: ASTQPSSVSANPGETVKITCSGGSSGYAYGWYQQKSPGSAPVTLLYSNNNRPSDIPSRFSGSKSGSTATLTITGVQAEDEAVYFCGSVDSSSYAGIFGAGTTLTVL
notes: VL of anti-GPC1 mAb (clone: 1–12); purple) and its source data 1; linker of the scFv; orange); VH of anti-GPC1 mAb (clone: 1–12); green) and its source data 1; scFv cloned into pCAG-Neo mIgG2a-Fc plasmid (FUJIFILM Wako); Variable regions come from a chicken-based antibody; In the functional rows the same scFv stood as a CAR (human CD28 and CD3ζ domains) on human T cells; also called LH form of …
[1]
  Kd: 51.8 nM
[2]
  Kd: 9.06 nM

B2: HL form of anti GPC1 scFv-mIgG2a Fc fusion protein (scFv, V domains shown)
VH: AVTLDESGGGLQTPGRALSLVCKASGFTFSRYAMYWVRQAPGKGLEFVAGIGNTGRYTGYGSAVKGRATISRDSGQSTVRLQLNNLRAEDTGNYYCAKSVSPYCCDAADIDAWGHGTEVIVSS
VL: ASTQPSSVSANPGETVKITCSGGSSGYAYGWYQQKSPGSAPVTLLYSNNNRPSDIPSRFSGSKSGSTATLTITGVQAEDEAVYFCGSVDSSSYAGIFGAGTTLTVL
notes: VH of anti-GPC1 mAb (clone: 1–12), as the VH of m1; linker of the scFv; orange); VL of anti-GPC1 mAb (clone: 1–12), as the VL of m1; scFv cloned into pCAG-Neo mIgG2a-Fc plasmid (FUJIFILM Wako); Variable regions come from a chicken-based antibody; In the functional rows the same scFv stood as a CAR on human T cells (human CD28/CD3ζ) or murine T cells (mouse CD28/CD3ζ); also called HL form of scFv; …
[1]
  Kd: 109 nM
[2]
  Kd: 12.2 nM
